# Test: protease stability score; higher = more stable; yeast display proteolysis, trypsin and chymotrypsin;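 further: relative to predicted unfolded state with 0 unfolded-like and 1 meaning tenfold more protease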
row,Sequence,protease stability score
1,SEEEKELKTLVEELWHAWETGDEDFIHKYMDPHARLHIGDKDHHGREEIRESLRQHREHLRIEHVHRHHVKLVDGRIETHGHILGHIGDKRFETEMIIIIIVINGRIRSMKFDYR,1.03
2,TEEDEMWKELSDILLEIHETGDWDRLIRLVDPDVKVNIDGKDLHGWQEVAHTIRVLLEQFKGVKIIIRHVEIQGDKVHIHMEIRQGDKHYEVHLHYIVVNGKIKQMHMHRR,1
3,DEETKELEEIMKFYISAFRTGDWRLIEELADPNVRLNVDGREFHGREQFLKHFREELEHLGIDHVHVDHIDIQGEKLIIRLTIHVDGREIHNILILIIVNGRLHEVKWIRV,1.58
4,SEDEHSWRLAREEFRKTNETGNEEDLSRLFDPHVRIDINGREIHGRDEASELFHKLGIDHIRWRVKRVKIFDGRMENRGELILIFNGREHRYDITVISSKIDGQWSVESMHYK,0.534
5,DEEERDAEEVFRKFMRDVFTGNWDHIHEMFDPHARSSIQVDGRHIELHGRDELTRIFIWLGVDHIELKHVHIQGEKVISIGIVRYNGKHTHLEVYLRKVDGRWIIHSVHVRIR,1.67
6,SERKQASEDAFRIYIETFKTGDERTMRENMDPDVRVHIGEFNHHGMEESAHLLHEYWKRFGFRIRHVHIEDVKNVGNKVILHTLSEIEINGREEHVDTELIILKIDGKWLVEEVRVK,0.92
7,DHDEKRVREILELFLNAITTGDEETLRHLLDPNVKTDINGVELHGWKDILHHLMEMRIHVRHYETRHLNKIGEYLHLEVHVYGEHHFDGRTREDTYYVNVIILKVNGRWHLHQFSVH,1.39
8,DEDEHFAENIIRILLHLIVTGDEDQLERLIDPHVKVTIGDKEFHGRLADEILREEIRIKRVHLRDFRIVNGRAESRFKLVGNWNGVETEFTKSVYIDKINGRWIITERHIT,1.16
9,DELRKEAEEHAQHLLDLFDTGDWDRISELADPNTLVIIDINGVHINNVGWEEIRKLWEITRHHLRIEERRVESSRTFENRVELDVKDHIKVGNKKINLDSHITIDVVNGQMKRVDFQLR,2.04
10,DEEEKEFEFAEQVLKESLLTGDERTLKELMDPHVRLEQGDKLYIGRESFIKWWSKRREELGINHLHYRIKEVHIVNGRVRVNSHIEIIIGDKRHEEKVHFVLLKINGRWLMESVHME,1.46
11,DRIEEEFEFALRHLIHNWVTGDETRLQKLADPNVRTVFEGREHHGRESFTELVHEIRFHDFRLRDYKIQGNKIVVDGEFDVDINGVRRIIRVELEIIKINGRWYIHSISFL,0.203
12,SELEEEARKMNERFWRDMITGDFDSLVRLADPHVKVLYGDKFSIGREVFEEHLRHLGIKVSHLRNLDVQGDKVIVHGESKFNGKTFELEIIMRKFDGRWFIETVNLQ,0.973
13,SELEEWTERMAKQMLDDVETGDEDRLLKLADPHVRVEFIVDGKIEEVHGREELRKLMERLGIKHFEIKRVSIRVIDGRIHVHNDGHMIIDGKTIPVQLHIHAEKVNGRWRVTDLSIRVG,1.51
14,SRESEEAKDDWEKIINDLRTGDFRSLRELFDPNVRLETENHEFHGWETAEHMVKRFDHIHVRREHFDHIEIQGEKVILDGTMRMEFIINGVVYEKEQRVIIIFLKYNGRWLIKEVEFI,0.759
15,SEDEEHAEFFNRLLAESLMTGDWRTIANLLDPHVRVRVGDKQHHGREQVIHLLTKLLEDWGLERVHIHLRELRVINGRIHTRNELHVGDKTVDVKVHTRKIDGRWVIEEIEFR,1.16
16,DDQEKLVRKAWELLVRHLHTGDEEHLDKLIDPNTRMTYNGRETHGMELFSHLMTHLRVKDMDLKEVRIVDGRAILDGHLHGEIDGRETTTRTTYIILKIDGRWFVKSVRFE,1.15
17,DEDKESLTRFWRMWVELNQTGDEDSLLKMFDPHVKIDINGRDLHGRELFAEEHKKFREEMGIDHFEFEIHRFEVQGDKANLDAKVTIRIGDKFHQLDLHIILHKVNGRWVLHSVKIR,1.22
18,SEDEEHARKLVEELLHIMITGDFHRIRELADPHARIVVGDKVFHGREMMFRFSRELRVHDHRLRHEEYINGVVHIEGHVDGEINGRRHRTEVRIHIVVIDGRVKTMEIRWD,1.35
19,DDHHEVARKIFFHHYNITQTGDEESIERLLDPNVRIIIDGKYIHGWEEILRLIRHIRIHRFNVHRVELQGEKLILDGFTDGSFDGKRITTTIDIYILKIDGRWFIQQIELR,1.46
20,DHIEEELIRWLELLRNALETGDEELVVKLVDPRYRLIIGDKHHHGMEEWSKILKEESERVKNARIELHLRHLRLFNGQADMEVENVVRYNGVTIIIDVRIHLLKVNGRWKEREVREG,1.33
21,DELEKLLEHMLRLMNELLETGDWDWIMSLADPHTKFRLDINGVEHIDHGWEFLHKRIEELGADHREFRVRDIHTQGDKVHSEGEHLIRVNGKEIHIDVRIILLVVNGKVKEIEVRFK,1.7
22,DEEEEEMRKMIDEILKDQATGDEDRLKKLLDPNMRSEINGKDLHGREIVTETLAHLFRFLGIKHVHLNDYRIQGDKVEIYGELEINGQKHTNKIHAEKVNGKWVISEMRLH,1.43
23,DEEERRTREFTEHVLHAEETGDFDSFVELADPNVRMRIGDKEIHGMEMVAKWLVHMRIKHFNLHRIEIQGEKVHIDGEIKGRFNGRDTETKVIFHIVVIDGRLHSQIIQIH,1.54
24,DEREEHHEENARLLLEQFKTGNWDFLRSLADPNVQHNWDGRKSHGRESMVRLLIDHIRKVKGMRTEEKEVEFQGDKVILHGRVNINGREIEVIFILEVVDGRIKSLHIDFR,0.697
25,SEDDEKLEQIIELLDKVMKTGDERAYNELMDPNTRYQVGDKEFHGMEWWSEIYSRHEKKLGIEKVEVDIENHHVQGDKVTVHGRVNINGREHEYRFVLTKVDGQWRLREENIK,1.15

row,Sequence,protease stability score
1,DEEKRDAREFLHLLFHAMITGDEDLVRHLADPHVKLDVNGRELHGWELFLTWFKRLLEEIRLTDIDVHHIELQGNKIILDTRLHVRVGDKEVDIHTEFHVVKVNGKWRLKTMRTE,2.61
2,DEEKRHHDEWRQFFLDSIKTGNWFELLKMIDPNTKILINGKEFHGRDAMHHFLTELRRRVDHLERFDIHHIDIQGNKAFDDTRLEGRINGVETHIDLLLISTKVNGVWYLKSVELR,2.13
3,SEDEKDARIAVKLLWEIFQTGDEDLFTKFIDPNTRSEINGREIHGREDVYRLMEELGIKVIRVHDVKTQGDKVHLTMEVTVNGRRHRVHFIFEKIDGRWIARHEKVE,1.45
4,NELEKHLREMTREMLEAWRTGDFDHLEHLADPHVRIETIYNGQREEFHGREWLIKAVERLDRLMGIDHIYFQEWTTIGDFVDVDLRTQVGDKRIRLHMELNVVNGRIKFHRIEVE,1.24
5,DEEEKHSEDIADLMLRWWLTGDFELLAKYADPRVRLDINGREFHGREEYEEVMKDLIRRFKNVKIEIRDYEIQGEKVHVDTRLHINGKTHTVHLTFVVIDGVIKSESIRVR,1.27
6,DEEEEFLRLILETLRHAAETGDWHILNRLLDPDARIVIGDKEIHGREKVQHEFRRIDHYQWHHIILDRVHIYDGRIELHGQVEEELNVDGQRIRRLTDTHFVIVKVDGQWKIHTIEIR,2.22
7,DELEEELETAERISHEVLDTGDERIWSKLIDPNARLQIGDKEYHGREEVQRFFLEFGFKVSDIHSVKVQGDKIHVDTRSRVDGKEIELQLNSEKINGKWVLRHIHVWKR,1.28
8,SEHEKMMREIAKEYIDWFLTGDEELERNLADPDTRLNVDGREHHGMEEVIDLWRRIGLSNVDLRIHHWRAYGEFVYFDGEYTVGDKKRKVHFEYFVVNGRLKEVRVEIR,1.51
9,DEMEEHSRHLVELFWHWTDTGNEDLIRKNADPNVRLEVNGVHAHGWELYIRMMNQIRIEDRKINDVEVQGDKMRVDGEVQIYYNGKRVDDHLKLHLVVVDGKLKSVHRELE,1.31
10,DEDEEDVDRVSRRWARAMTTGDEDELRELLDPNTRYVQGDKHLHGRTQFERHLREMRFIIHDVRVDNITIIDGRMHIHGHVVGELRTEDHEHHFIFRFHLIVMKINGKWLIKHVDVQ,0.819
11,DDRERESEEALRLFIETLETGDEHWLKRLMDPNARLHQGEKTIHGMDIFSTWVVEARLKHYHLERVHIQGDKMDVESHVDGHVNGQRLKVQLIFHSLKIDGRWLVKHIIVH,1.4
12,DETEHHAREMAELLLHVILTGDEHLMERLIDPDVKLHSFFNGRQFHRIGMEELKRYLEEWRREIRLKDVRIRQFEVQGDKFRLDMEVEGNINGRDNVTKTELIIITVNGRLHEIDIRIE,2.1
13,DEEKKEVNRIFELWARLFETGDEDSIHRLLDPNARLEVNGQEIHGRHNISRTFLEFKERFKGIKIELILREVRVIGDKVHIHSELRVNINGREESFETDIDLVVIDGKLHSFRFHVH,2.48
14,SETEETVRRFFELLMKLEHTGNEEAIEKLFDPNMKWHQGEKERHGRETFSRMVSELRIHDFRLHRIEIYGDKAIIEGSVDGNFNGQRSEVEVTIHLEKIDGRWFIHSIHLS,1.15
15,SEEESKERHNEKFLKTVHKTGDEHSWRKMLDPDVRVEYGDKHDHGWEAIERFRKELGIERIHIDDRKIRHNEVVNGQVYLHEELVGTVNGVHVQVKMLIIFHKVDGKWHVELVQIN,0.559
16,DEDEELVKKFFKEHSESNRTGDWHTIMKQADPNARIFINGVILHGRELFTEHMMRMVRRADHFHFHLEDMRVINGRAELDVHVHLNINGKIDNVETHFIVIKINGRWRLEESRFH,0.661
17,DEVEKFSRDMLHFVRHLWETGDPHLFSRLADPHAQVHIGDKRLHGREEFEKHIEEMIERFPGIRLNLRHFEVQGDKMLVNFEIRVGEKNFTIHLEARKINGRWYIESVEVR,0.894
18,DEDKKVAELVMRLWEHTQRTGDPDMMSKLADPNVRVDVNGREIHGRERLFEHLEHMRINHFRLRDREIHVQGDYVKIRIEGELDGDINGREDRHRIELIIVVEKINGRWFMTEVIVIVK,1.37
19,GELEKLATTIVRLWVRHWYTGDEESSMRLMDPNARIIINGKEMHGRELYVHFLRRVLEHIRPESVDIEEVKIQGDYAHIDITEHRRIGDKEVTFRTEVSIIVINGKVTEVHMEIR,1.7
20,TEEEEEMRKMSELYIRAILTGDEDEYTKLADPDDRVNFNGRKLVGRKEVKEWLRKLRDKFKNITLHHFEIKELRVYNGRIRMIAESEVNIGDKVWRFHLHFIFEKFDGVWVLTEESTE,1.64
21,SEEEKRWEDWARLMLNWLRTGDEEKISNLMDPNAKSETLIDGRRVEYHGREEVSRFLFELFEEFGIDHLHVRHYDVFDGVFHAHFRVHVGEKERELEVEFHVVDGRITVDTVKFH,1.5
22,SETERKVREVLRLLDESLTTGDEREFRHLFDPNARLEIGDWEIHGMEIIDRLLHEIRIEVNDSKVRRIRIQGDKVEVHTRVDLKFNVDGVTERHDRDQHLLILKVNGRWLIKNFYIE,1.1
23,SEEEKRMRDVLRRMEEALKTGDWKFLKDLLDPHTRTVINGRDRHGREFVLEVFSRFGADHSDIEDEDFQGNFVILHLEMEIGDKRIRLRIYIEKINGRWIWRHVIFD,2.85
24,DDMERHNRWFLRDLIHAIVTGDEELEERLFDPNAKVHIDGVTFIGRELVEFLRKRVDHRRMHVKRTDSQGEYLINHTELILHINGKDVRTDTVWIFHKFNGQWVVHTMEVK,0.815
25,SEDDDHSEHMYRRILELWKTGNWRLFHELLDPNTRFEIGDKEFHGREEVVEYLRRDLEKFKNIRFHIRQHEVVGNKLHIDGEIIFNGKHEHVHIILLIVDGKIKEIRFESR,2.72
